Test results: PMC9482650, “Quantitative fragmentomics allow affinity mapping of interactomes” (Nature Communications, 2022)

T1: APBA2_1, Q99767
T1 sequence (Q99767 563-664, limits assumed, looked up): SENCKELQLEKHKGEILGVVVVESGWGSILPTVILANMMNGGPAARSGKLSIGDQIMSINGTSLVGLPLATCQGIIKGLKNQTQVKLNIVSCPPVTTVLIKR

T2: APBA3_1, O96018
T2 sequence (O96018 389-490, limits assumed, looked up): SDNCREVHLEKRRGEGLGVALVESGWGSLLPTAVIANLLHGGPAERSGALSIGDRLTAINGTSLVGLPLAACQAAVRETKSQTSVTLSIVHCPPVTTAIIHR

T3: ARHGEF11, O15085
T3 sequence (O15085 42-136, limits assumed, looked up): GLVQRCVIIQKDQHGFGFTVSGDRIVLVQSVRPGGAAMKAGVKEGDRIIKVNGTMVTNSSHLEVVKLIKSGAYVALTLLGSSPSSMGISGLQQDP

T4: CARD11, Q9BXL7
T4 sequence (Q9BXL7 662-765, limits assumed, looked up): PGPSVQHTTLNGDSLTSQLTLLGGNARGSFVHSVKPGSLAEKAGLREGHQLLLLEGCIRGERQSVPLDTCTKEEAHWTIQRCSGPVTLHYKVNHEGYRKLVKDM

T5: DVL3, Q92997
T5 sequence (Q92997 244-331, limits assumed, looked up): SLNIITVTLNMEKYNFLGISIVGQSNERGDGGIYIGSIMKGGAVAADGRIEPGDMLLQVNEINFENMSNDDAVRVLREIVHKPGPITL

T6: FRMPD1, Q5SYB0
T6 sequence (Q5SYB0 52-145, limits assumed, looked up): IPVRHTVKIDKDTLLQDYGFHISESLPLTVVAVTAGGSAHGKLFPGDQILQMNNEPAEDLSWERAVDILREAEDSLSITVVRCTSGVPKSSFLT

T7: GRIP1_2, Q9Y3R0
T7 sequence (Q9Y3R0 145-248, limits assumed, looked up): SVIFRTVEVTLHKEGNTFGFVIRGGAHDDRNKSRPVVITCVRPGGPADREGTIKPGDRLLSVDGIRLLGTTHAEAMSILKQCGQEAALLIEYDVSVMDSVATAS

T8: MPP6, Q9NZW5
T8 sequence (Q9NZW5 125-219, limits assumed, looked up): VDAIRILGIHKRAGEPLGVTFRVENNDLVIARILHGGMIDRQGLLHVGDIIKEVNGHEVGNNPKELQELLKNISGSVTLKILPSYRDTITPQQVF

T9: NHERF3_1, Q5T2W1
T9 sequence (Q5T2W1 4-100, limits assumed, looked up): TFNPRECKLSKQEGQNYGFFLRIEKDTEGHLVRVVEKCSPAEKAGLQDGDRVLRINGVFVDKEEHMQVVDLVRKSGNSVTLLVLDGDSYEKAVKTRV

T10: PCLO, Q9Y6V0
T10 sequence (Q9Y6V0 4491-4600, limits assumed, looked up): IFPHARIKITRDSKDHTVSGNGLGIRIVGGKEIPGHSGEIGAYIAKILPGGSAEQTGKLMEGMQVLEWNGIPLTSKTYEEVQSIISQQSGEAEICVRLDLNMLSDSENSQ

T11: SNTA1, Q13424
T11 sequence (Q13424 82-180, limits assumed, looked up): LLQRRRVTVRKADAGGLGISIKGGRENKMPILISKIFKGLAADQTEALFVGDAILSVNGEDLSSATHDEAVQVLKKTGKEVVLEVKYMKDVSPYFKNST

T12: TIAM2, Q8IVF5
T12 sequence (Q8IVF5 885-986, limits assumed, looked up): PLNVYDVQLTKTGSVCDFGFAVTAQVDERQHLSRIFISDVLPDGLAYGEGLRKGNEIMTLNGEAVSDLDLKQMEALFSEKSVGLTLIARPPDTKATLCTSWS

T13: TJP3_3, O95049
T13 sequence (O95049 375-456, limits assumed, looked up): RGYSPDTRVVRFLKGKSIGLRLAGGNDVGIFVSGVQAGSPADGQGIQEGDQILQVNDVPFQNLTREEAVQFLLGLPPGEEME


What follows are binders tested against T1, APBA2_1, Q99767 (assay: holdup assay). Conditions: plain residues with an end cap or a label only (N-terminal biotin on a linker: ado-ado).
Set-up: key: below the threshold = too weak to quantify, mostly under pKd 3.1 to 4
For LDKESFLTWL [YAP1, P46937], the pKd was “below the threshold”.
In the case of VRPGVKESLV [SCN4A, P35499], the pKd is reported as “below the threshold”.

The binders below were run against T2, APBA3_1, O96018 (assay: holdup assay). Conditions: plain residues with an end cap or a label only (N-terminal biotin on a linker: ado-ado).
Set-up: key: below the threshold = too weak to quantify, mostly under pKd 3.1 to 4
With LDKESFLTWL [YAP1, P46937] the pKd was “below the threshold”.
In the case of VRPGVKESLV [SCN4A, P35499], the pKd is reported as “below the threshold”.

What follows are binders tested against T3, ARHGEF11, O15085 (assay: holdup assay). Conditions: plain residues with an end cap or a label only (N-terminal biotin on a linker: ado-ado).
Set-up: key: below the threshold = too weak to quantify, mostly under pKd 3.1 to 4
With LDKESFLTWL [YAP1, P46937] the pKd was 5.32.
With VRPGVKESLV [SCN4A, P35499] the pKd was “below the threshold”.

Each binder was assayed against ARHGEF12, Q9NZN5-2 (assay: holdup assay). Conditions: plain residues with an end cap or a label only (N-terminal biotin on a linker: ado-ado).
Sequence of ARHGEF12, Q9NZN5-2 (Q9NZN5 other isoform, or with tags, fused parts or gaps): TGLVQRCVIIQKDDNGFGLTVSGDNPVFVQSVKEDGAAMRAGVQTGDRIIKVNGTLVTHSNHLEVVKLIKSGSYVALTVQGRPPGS
Set-up: key: below the threshold = too weak to quantify, mostly under pKd 3.1 to 4
Binder LDKESFLTWL [YAP1, P46937] has a pKd of 4.84.
In the case of VRPGVKESLV [SCN4A, P35499], the pKd is reported as “below the threshold”.

What follows are binders tested against T4, CARD11, Q9BXL7 (assay: holdup assay). Conditions: plain residues with an end cap or a label only (N-terminal biotin on a linker: ado-ado).
Set-up: key: below the threshold = too weak to quantify, mostly under pKd 3.1 to 4
Binder LDKESFLTWL [YAP1, P46937] has a pKd of 3.64.
With VRPGVKESLV [SCN4A, P35499] the pKd was “below the threshold”.

These binders were tested against CASK, O14936 (assay: holdup assay). Conditions: plain residues with an end cap or a label only (N-terminal biotin on a linker: ado-ado).
Sequence of CASK, O14936 (O14936 487-570): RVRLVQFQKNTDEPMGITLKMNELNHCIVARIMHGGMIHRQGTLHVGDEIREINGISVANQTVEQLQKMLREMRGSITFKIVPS
Set-up: key: below the threshold = too weak to quantify, mostly under pKd 3.1 to 4
In the case of LDKESFLTWL [YAP1, P46937], the pKd is reported as “below the threshold”.
VRPGVKESLV [SCN4A, P35499] was tested, and the pKd was “below the threshold”.

Each binder was assayed against DLG5_1, Q8TDM6 (assay: holdup assay). Conditions: plain residues with an end cap or a label only (N-terminal biotin on a linker: ado-ado).
Sequence of DLG5_1, Q8TDM6 (Q8TDM6 617-713): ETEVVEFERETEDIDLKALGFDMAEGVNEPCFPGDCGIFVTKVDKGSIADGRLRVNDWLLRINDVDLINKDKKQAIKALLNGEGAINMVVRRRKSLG
Set-up: key: below the threshold = too weak to quantify, mostly under pKd 3.1 to 4
For LDKESFLTWL [YAP1, P46937], the pKd was “below the threshold”.
In the case of VRPGVKESLV [SCN4A, P35499], the pKd is reported as “below the threshold”.

These binders were tested against T5, DVL3, Q92997 (assay: holdup assay). Conditions: plain residues with an end cap or a label only (N-terminal biotin on a linker: ado-ado).
Set-up: key: below the threshold = too weak to quantify, mostly under pKd 3.1 to 4
Binder LDKESFLTWL [YAP1, P46937] has a pKd of 4.64.
With VRPGVKESLV [SCN4A, P35499] the pKd was “below the threshold”.

The binders below were run against T6, FRMPD1, Q5SYB0 (assay: holdup assay). Conditions: plain residues with an end cap or a label only (N-terminal biotin on a linker: ado-ado).
Set-up: key: below the threshold = too weak to quantify, mostly under pKd 3.1 to 4
LDKESFLTWL [YAP1, P46937] was tested, and the pKd was “below the threshold”.
For VRPGVKESLV [SCN4A, P35499], the pKd was “below the threshold”.

What follows are binders tested against T7, GRIP1_2, Q9Y3R0 (assay: holdup assay). Conditions: plain residues with an end cap or a label only (N-terminal biotin on a linker: ado-ado).
Set-up: key: below the threshold = too weak to quantify, mostly under pKd 3.1 to 4
With LDKESFLTWL [YAP1, P46937] the pKd was 3.51.
In the case of VRPGVKESLV [SCN4A, P35499], the pKd is reported as “below the threshold”.

The binders below were run against GRIP2_3, Q9C0E4 (assay: holdup assay). Conditions: plain residues with an end cap or a label only (N-terminal biotin on a linker: ado-ado).
Sequence of GRIP2_3, Q9C0E4 (Q9C0E4 238-339): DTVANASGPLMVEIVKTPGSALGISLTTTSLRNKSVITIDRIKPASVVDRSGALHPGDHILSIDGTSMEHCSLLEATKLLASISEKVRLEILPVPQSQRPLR
Set-up: key: below the threshold = too weak to quantify, mostly under pKd 3.1 to 4
For LDKESFLTWL [YAP1, P46937], the pKd was “below the threshold”.
VRPGVKESLV [SCN4A, P35499] was tested, and the pKd was “below the threshold”.

The binders below were run against GRIP2_6, Q9C0E4 (assay: holdup assay). Conditions: plain residues with an end cap or a label only (N-terminal biotin on a linker: ado-ado).
Sequence of GRIP2_6, Q9C0E4 (Q9C0E4 648-740): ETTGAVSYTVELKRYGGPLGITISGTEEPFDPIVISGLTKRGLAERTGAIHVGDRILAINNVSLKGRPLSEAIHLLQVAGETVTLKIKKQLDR
Set-up: key: below the threshold = too weak to quantify, mostly under pKd 3.1 to 4
For LDKESFLTWL [YAP1, P46937], the pKd was “below the threshold”.
In the case of VRPGVKESLV [SCN4A, P35499], the pKd is reported as “below the threshold”.

These binders were tested against HTRA2, O43464 (assay: holdup assay). Conditions: plain residues with an end cap or a label only (N-terminal biotin on a linker: ado-ado).
Sequence of HTRA2, O43464 (O43464 355-458): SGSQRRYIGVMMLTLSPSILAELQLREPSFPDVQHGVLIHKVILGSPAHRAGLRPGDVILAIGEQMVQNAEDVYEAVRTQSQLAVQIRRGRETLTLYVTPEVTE
Set-up: key: below the threshold = too weak to quantify, mostly under pKd 3.1 to 4
Binder LDKESFLTWL [YAP1, P46937] has a pKd of 4.73.
VRPGVKESLV [SCN4A, P35499] was tested, and the pKd was “below the threshold”.

The binders below were run against IL16_1, Q14005 (assay: holdup assay). Conditions: plain residues with an end cap or a label only (N-terminal biotin on a linker: ado-ado).
Sequence of IL16_1, Q14005 (Q14005 210-306): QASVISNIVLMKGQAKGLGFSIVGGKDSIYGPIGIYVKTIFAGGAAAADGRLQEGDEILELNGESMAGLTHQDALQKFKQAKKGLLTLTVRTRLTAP
Set-up: key: below the threshold = too weak to quantify, mostly under pKd 3.1 to 4
LDKESFLTWL [YAP1, P46937] gave a pKd of 3.55.
In the case of VRPGVKESLV [SCN4A, P35499], the pKd is reported as 4.78.

These binders were tested against Inadl_6, Q8NI35 (assay: holdup assay). Conditions: plain residues with an end cap or a label only (N-terminal biotin on a linker: ado-ado).
Sequence of Inadl_6, Q8NI35 (Q8NI35 1058-1167): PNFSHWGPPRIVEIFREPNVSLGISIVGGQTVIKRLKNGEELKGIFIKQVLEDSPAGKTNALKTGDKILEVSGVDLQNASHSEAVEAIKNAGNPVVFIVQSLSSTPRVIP
Set-up: key: below the threshold = too weak to quantify, mostly under pKd 3.1 to 4
In the case of LDKESFLTWL [YAP1, P46937], the pKd is reported as 5.66.
With VRPGVKESLV [SCN4A, P35499] the pKd was 3.54.

Each binder was assayed against MAGI2_6, Q86UL8 (assay: holdup assay). Conditions: plain residues with an end cap or a label only (N-terminal biotin on a linker: ado-ado).
Sequence of MAGI2_6, Q86UL8 (Q86UL8 1141-1229): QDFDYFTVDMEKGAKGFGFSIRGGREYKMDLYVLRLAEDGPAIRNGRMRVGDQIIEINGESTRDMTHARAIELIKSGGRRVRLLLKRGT
Set-up: key: below the threshold = too weak to quantify, mostly under pKd 3.1 to 4
LDKESFLTWL [YAP1, P46937] was tested, and the pKd was 4.82.
Binder VRPGVKESLV [SCN4A, P35499] has a pKd of 3.93.

What follows are binders tested against T8, MPP6, Q9NZW5 (assay: holdup assay). Conditions: plain residues with an end cap or a label only (N-terminal biotin on a linker: ado-ado).
Set-up: key: below the threshold = too weak to quantify, mostly under pKd 3.1 to 4
LDKESFLTWL [YAP1, P46937] was tested, and the pKd was “below the threshold”.
With VRPGVKESLV [SCN4A, P35499] the pKd was 3.67.

Each binder was assayed against T9, NHERF3_1, Q5T2W1 (assay: holdup assay). Conditions: plain residues with an end cap or a label only (N-terminal biotin on a linker: ado-ado).
Set-up: key: below the threshold = too weak to quantify, mostly under pKd 3.1 to 4
Work on LDKESFLTWL [YAP1, P46937] yielded a pKd of 5.1.
In the case of VRPGVKESLV [SCN4A, P35499], the pKd is reported as 4.6.

Each binder was assayed against NHERF4_2, Q86UT5 (assay: holdup assay). Conditions: plain residues with an end cap or a label only (N-terminal biotin on a linker: ado-ado).
Sequence of NHERF4_2, Q86UT5 (Q86UT5 220-308): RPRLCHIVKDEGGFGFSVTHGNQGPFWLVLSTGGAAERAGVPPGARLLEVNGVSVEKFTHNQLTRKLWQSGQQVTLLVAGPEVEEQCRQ
Set-up: key: below the threshold = too weak to quantify, mostly under pKd 3.1 to 4
For LDKESFLTWL [YAP1, P46937], the pKd was “below the threshold”.
VRPGVKESLV [SCN4A, P35499] was tested, and the pKd was “below the threshold”.

The binders below were run against NOS1, P29475 (assay: holdup assay). Conditions: plain residues with an end cap or a label only (N-terminal biotin on a linker: ado-ado).
Sequence of NOS1, P29475 (P29475 9-101): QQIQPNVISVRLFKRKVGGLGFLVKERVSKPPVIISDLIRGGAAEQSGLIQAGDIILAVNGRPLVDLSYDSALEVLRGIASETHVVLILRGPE
Set-up: key: below the threshold = too weak to quantify, mostly under pKd 3.1 to 4
LDKESFLTWL [YAP1, P46937] was tested, and the pKd was 4.03.
For VRPGVKESLV [SCN4A, P35499], the pKd was 3.97.

The binders below were run against T10, PCLO, Q9Y6V0 (assay: holdup assay). Conditions: plain residues with an end cap or a label only (N-terminal biotin on a linker: ado-ado).
Set-up: key: below the threshold = too weak to quantify, mostly under pKd 3.1 to 4
LDKESFLTWL [YAP1, P46937] showed a pKd of 3.57.
VRPGVKESLV [SCN4A, P35499] was tested, and the pKd was “below the threshold”.

What follows are binders tested against PICK1, Q9NRD5 (assay: holdup assay). Conditions: plain residues with an end cap or a label only (N-terminal biotin on a linker: ado-ado).
Sequence of PICK1, Q9NRD5 (Q9NRD5 17-115): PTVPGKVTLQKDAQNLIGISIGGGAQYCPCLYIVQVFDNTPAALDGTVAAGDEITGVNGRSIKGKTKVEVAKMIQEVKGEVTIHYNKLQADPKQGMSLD
Set-up: key: below the threshold = too weak to quantify, mostly under pKd 3.1 to 4
In the case of LDKESFLTWL [YAP1, P46937], the pKd is reported as “below the threshold”.
For VRPGVKESLV [SCN4A, P35499], the pKd was “below the threshold”.

These binders were tested against T11, SNTA1, Q13424 (assay: holdup assay). Conditions: plain residues with an end cap or a label only (N-terminal biotin on a linker: ado-ado).
Set-up: key: below the threshold = too weak to quantify, mostly under pKd 3.1 to 4
With LDKESFLTWL [YAP1, P46937] the pKd was “below the threshold”.
VRPGVKESLV [SCN4A, P35499] was tested, and the pKd was 4.76.

Each binder was assayed against T12, TIAM2, Q8IVF5 (assay: holdup assay). Conditions: plain residues with an end cap or a label only (N-terminal biotin on a linker: ado-ado).
Set-up: key: below the threshold = too weak to quantify, mostly under pKd 3.1 to 4
LDKESFLTWL [YAP1, P46937] gave a pKd of 3.6.
For VRPGVKESLV [SCN4A, P35499], the pKd was “below the threshold”.

The binders below were run against T13, TJP3_3, O95049 (assay: holdup assay). Conditions: plain residues with an end cap or a label only (N-terminal biotin on a linker: ado-ado).
Set-up: key: below the threshold = too weak to quantify, mostly under pKd 3.1 to 4
LDKESFLTWL [YAP1, P46937] gave a pKd of 4.18.
With VRPGVKESLV [SCN4A, P35499] the pKd was “below the threshold”.
